Experiments:
Assay in all cases: ELISA
[1] = biological target: SHC014 S2P (pre-fusion-stabilized soluble spike) (Bat SARS-like coronavirus RsSHC014, UniProt U5WLK5, stabilised)
[2] = biological target: RaTG13 S2P (pre-fusion-stabilized soluble spike) (Bat coronavirus RaTG13 (GenBank …, UniProt A0ABF7PLN6, stabilised))
[3] = biological target: WIV1 S2P (pre-fusion-stabilized soluble spike) (Bat SARS-like coronavirus WIV1, UniProt U5WI05, stabilised)
[4] = biological target: MERS-CoV S2P (pre-fusion-stabilized soluble spike) (MERS-CoV EMC/2012 (GenBank AFS88936), UniProt K0BRG7, stabilised)
[5] = biological target: SARS-CoV S2P (pre-fusion-stabilized soluble spike) (SARS-CoV Urbani, UniProt P59594, stabilised)

Measured: binding result

B1: WS6 (monoclonal antibody, IgG) (antibody, V domains shown)
VH: EVQFQQSGTVLARPGASVKMSCKASGYTFTNYWIHWVKQRPGQGLEYIGGTYPGNGDTTYNQKFKGKAKVTAVTPTSTAYMDLSSLTNEDSAVYYCTRTGSYFDYWGQGTTLTVSS
VL: QIVLTQSPAIMSASPGEKVTISCSATSSVSYIYWYQQRPGSSPKPWIYRTSNLASGVPVRFSGSGSGTSYSLTISNMEAEDAATYYCQQYQSYPPTFGAGTKLELK
binds: [1] | [2] | [3] | [4] | [5]
